Data on 10 molecules can be found in patent US20240287178A1 (YALE UNIVERSITY, published 2024).

One experiment addresses T1, Rat UNC5B (rat, UniProt O08722).
T1 construct: a recombinant rat Unc5B-ECD Fc fusion protein (R&D systems) only for the phage selection; Kept apart from m11, which is the GFP fusion expressed in PAECs; also called rat Unc5B (Biacore analysis)
As to the kind of experiment: Biacore. In general terms: Surface plasmon resonance follows binding to a sensor surface in real time, without labels.

In a further experiment the target is T2, human Unc5B (human, UniProt Q8IZJ1 27-945).
T2 construct: whole, on cells; also called Unc5B (HUVEC)
Put plainly: Biacore.

Experiment [1] deals with T3, Unc5B (analyte or ligand of the Biacore analysis; species and construct not stated).
T3 construct: The phage selection used a recombinant rat Unc5B-ECD Fc fusion (R&D Systems)
Put plainly: Biacore (SPR); format not stated.

The target of experiment [2] is T4, rat Unc5B coupled to GFP, in transfected porcine aortic endothelial cells (PAECs) (rat, UniProt O08722 27-945).
T4 construct: whole, on cells; also called rat Unc5B-GFP; not shown: GFP
Put plainly: immunoprecipitation from PAECs transfected with rat Unc5B-GFP, 1 h after antibody treatment. The text has this:
Light (LC) and Heavy (HC) chains were sequenced for each antibody (FIGS. 1A-1D and 2A-2D).

Experiment [3] has as its target T5, mouse Unc5B (mouse, UniProt Q8K1S3 27-945).
T5 construct: whole, on cells; Endogenous receptor, on cells or in brain lysates; also called Unc5B (Bend.3 cells, mouse brain)
As to the kind of experiment: immunoprecipitation from Bend.3 cells after antibody treatment, western blot for Unc5B.

The target of experiment [4] is T5, mouse Unc5B. Put plainly: co-immunoprecipitation with the anti-Unc5B antibodies from Bend.3 cells, western blot for Claudin5. A general note: In western blotting, separated proteins are transferred to a membrane and probed.

B1: antibody 1097 (antibody, V domains shown)
VH: EVQLVESGGGLVQPGGSLRLSCAASGFNLYYYSMHWVRQAPGKGLEWVASIYSYSSYTSYADSVKGRFTISADTSKNTAYLQMNSLRAEDTAVYYCARSYAMDYWGQGTLVTVSS
VL: DIQMTQSPSSLSASVGDRVTITCRASQSVSSAVAWYQQKPGKAPKLLIYSASSLYSGVPSRFSGSRSGTDFTLTISSLQPEDFATYYCQQSYGPFTFGQGTKVEIKR
As to B1, in the experiment with Rat UNC5B, binding was put at a Kd of 0.712 nM; the off-rate constant (koff) – broadly, a measure of how fast the partners let go of each other – came out at 0.00104 s⁻¹; the kon (usually a measure of how fast the partners come together) was found to be 1.46e+06 M⁻¹ s⁻¹. Also, in the experiment with human Unc5B, the Kd (in general, the concentration at which binding is half-saturated) turned out to be 0.692 nM; the koff was 0.000993 s⁻¹; the kon came out at 1.44e+06 M⁻¹ s⁻¹. Moreover, the Kd in experiment [1] came out at 0.7 nM.

B2: anti-Unc5B antibody 1103 (antibody, V domains shown)
VH: EVQLVESGGGLVQPGGSLRLSCAASGFNISYYSIHWVRQAPGKGLEWVASIYSSSGYTSYADSVKGRFTISADTSKNTAYLQMNSLRAEDTAVYYCARGYGLDYWGQGTLVTVSS
VL: DIQMTQSPSSLSASVGDRVTITCRASQSVSSAVAWYQQKPGKAPKLLIYSASSLYSGVPSRFSGSRSGTDFTLTISSLQPEDFATYYCQQHYSYPITFGQGTKVEIKR
In the experiment with Rat UNC5B, B2 came in with a Kd of 1.34 nM, a koff of 0.000501 s⁻¹ and a kon of 375000 M⁻¹ s⁻¹. Further, in the experiment with human Unc5B, the Kd is 1.29 nM, the koff is 0.000482 s⁻¹ and the kon worked out at 375000 M⁻¹ s⁻¹. Binding in experiment [1] was characterised by a dissociation constant (Kd) of 1.3 nM.

B3: antibody 1101 (antibody, V domains shown)
VH: EVQLVESGGGLVQPGGSLRLSCAASGFNIYYSSMHWVRQAPGKGLEWVAYISSSYGYTYYADSVKGRFTISADTSKNTAYLQMNSLRAEDTAVYYCARGYYAGYFGIDYWGQGTLVTVSS
VL: DIQMTQSPSSLSASVGDRVTITCRASQSVSSAVAWYQQKPGKAPKLLIYSASSLYSGVPSRFSGSRSGTDFTLTISSLQPEDFATYYCQQAGWPITFGQGTKVEIKR
For the molecule B3, the binding result in experiment [2] is “binds”.

B4: antibody 1095 (antibody, human IgG2, kappa, V domains shown)
VH: EVQLVESGGGLVQPGGSLRLSCAASGFNISYSSIHWVRQAPGKGLEWVAYIYPYYGYTYYADSVKGRFTISADTSKNTAYLQMNSLRAEDTAVYYCARGYGIDYWGQGTLVTVSS
VL: DIQMTQSPSSLSASVGDRVTITCRASQSVSSAVAWYQQKPGKAPKLLIYSASSLYSGVPSRFSGSRSGTDFTLTISSLQPEDFATYYCQQHYSLFTFGQGTKVEIKR
Turning to B4, the binding result (in experiment [2]; in the experiment with mouse Unc5B [3]) was “binds” each time.

B5: antibody 1100 (antibody, V domains shown)
VH: EVQLVESGGGLVQPGGSLRLSCAASGFNLYYSSIHWVRQAPGKGLEWVASIYSYSSYTSYADSVKGRFTISADTSKNTAYLQMNSLRAEDTAVYYCARGYAMDYWGQGTLVTVSS
VL: DIQMTQSPSSLSASVGDRVTITCRASQSVSSAVAWYQQKPGKAPKLLIYSASSLYSGVPSRFSGSRSGTDFTLTISSLQPEDFATYYCQQHYGLITFGQGTKVEIKR
With B5, the binding result (in experiment [2]; in the experiment with mouse Unc5B [3]) was “binds” each time.

B6: antibody 1096 (antibody, V domains shown)
VH: EVQLVESGGGLVQPGGSLRLSCAASGFNLYYSSIHWVRQAPGKGLEWVASIYSYSSYTSYADSVKGRFTISADTSKNTAYLQMNSLRAEDTAVYYCARSYAMDYWGQGTLVTVSS
VL: DIQMTQSPSSLSASVGDRVTITCRASQSVSSAVAWYQQKPGKAPKLLIYSASSLYSGVPSRFSGSRSGTDFTLTISSLQPEDFATYYCQQGFAPFTFGQGTKVEIKR
On to B6, for which the binding result (in experiment [2]; with mouse Unc5B [3]) was “binds” throughout.

B7: antibody 1098 (antibody, V domains shown)
VH: EVQLVESGGGLVQPGGSLRLSCAASGFNIYYSYMHWVRQAPGKGLEWVASIYSYSSYTSYADSVKGRFTISADTSKNTAYLQMNSLRAEDTAVYYCARHYAMDYWGQGTLVTVSS
VL: DIQMTQSPSSLSASVGDRVTITCRASQSVSSAVAWYQQKPGKAPKLLIYSASSLYSGVPSRFSGSRSGTDFTLTISSLQPEDFATYYCQQSYSPFTFGQGTKVEIKR
As for B7, the binding result (in experiment [2]; with mouse Unc5B [3]) was “binds” throughout.

B8: antibody 1099 (antibody, V domains shown)
VH: EVQLVESGGGLVQPGGSLRLSCAASGFNLYYYSIHWVRQAPGKGLEWVASIYPYSSYTSYADSVKGRFTISADTSKNTAYLQMNSLRAEDTAVYYCARGYAFNYWGQGTLVTVSS
VL: DIQMTQSPSSLSASVGDRVTITCRASQSVSSAVAWYQQKPGKAPKLLIYSASSLYSGVPSRFSGSRSGTDFTLTISSLQPEDFATYYCQQHYALFTFGQGTKVEIKR
B8: the binding result in experiment [2] is recorded as “binds”.

B9: antibody 1102 (antibody, V domains shown)
VH: EVQLVESGGGLVQPGGSLRLSCAASGFNIYYSSMHWVRQAPGKGLEWVASIYSYSSYTSYADSVKGRFTISADTSKNTAYLQMNSLRAEDTAVYYCARSFAMDYWGQGTLVTVSS
VL: DIQMTQSPSSLSASVGDRVTITCRASQSVSSAVAWYQQKPGKAPKLLIYSASSLYSGVPSRFSGSRSGTDFTLTISSLQPEDFATYYCQQAYSPFTFGQGTKVEIKR
For B9, the binding result in experiment [2] is on record as “binds”.

B10: mouse Claudin5 (other, UniProt O54942 1-218, looked up)
chain: MGSAALEILGLVLCLVGWVGLILACGLPMWQVTAFLDHNIVTAQTTWKGLWMSCVVQSTGHMQCKVYESVLALSAEVQAARALTVGAVLLALVALFVTLTGAQCTTCVAPGPVKARVALTGGALYAVCGLLALVPLCWFANIVVREFYDPTVPVSQKYELGAALYIGWAASALLMCGGGLVCCGAWVCTGRPEFSFPVKYSAPRRPTANGDYDKKNYV
On to B10, for which, in the experiment with mouse Unc5B [4], the binding result is recorded as “binds”.
